Data published in the nanobody polyreactivity screen of Harvey et al. (2022).

experiment: yeast display, Sf9 membrane polyspecificity reagent, FACS + sequencing; frameworks hold sequencing errors
Method in brief: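 Synthetic nanobody libraries on Saccharomyces cerevisiae BJ5465 were galactose-induced for 36–48 hours, stained 1 hour at 4 °C with 10% biotinylated, detergent-solubilized Sf9 membrane reagent and enriched on streptavidin microbeads. FACS then separated cells into low and high (top ~1%) gates by anti-HA (expression) and streptavidin (reagent binding) fluorescence. Genes were colony-PCR amplified, MiSeq 2 × 250 sequenced and CDR-length filtered. A clone's polyreactivity label is that of its gate of origin.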

Row | Sequence | polyreactivity (PSR sort gate)
1 | QVQLVESGGGLVQAGGSLRLSCAASGIIFDYYAMGWYRQAPGKERELVAGISQRGGSTYYADSVKGRFTISRDNAKITVYLQMNSLKPEDTAVYYWAAYTRSCEGHRGGYWGQGTQVTVSS | high polyreactivity
2 | QVQLVESGGGLVQAGGSLRLSCAASGFTFYSYAMGWYRQAPGKERELVAAITKRGGSTSYADSVKGRFTISRDNAKNTVYLQMNSLKPEDTAVYYCNRRATKAQYGDEVDYWGQGTQVTVSS | high polyreactivity
3 | QVQLVESGGGLVQAGGSLRLSCAASGRTFVYNAMGWYRQAPGKERELVAAISFGGGNTYYADSVKGRFTISRDNAKNTVYLQMNSLKPEDTAVYYCAKAYIGYWGASWYYAYDYWGQGTQVTVSS | low polyreactivity
4 | QVQLVESGGGLVQAGGSLRLSCAASGRIFYFNAKGGYRQAPGKERELVAAIRNDTRTYYADSVKGRFTISRDNAKNTVYLQLNSLKPEDTAVYYCAARVYFSVITPIKYNYWGQGTQVTVSS | high polyreactivity
5 | QVQLVESGGGLVQAGGSLRLSCAASGSTFNEYVMGWYRHAPGKERELVAAITGGGGRTYYADSVKGRFTISRDNAKNTVYLQMNSLKPEDTAVYYCAKRYLFVTYWGFFRYDYWGQGTQVTVSS | low polyreactivity
6 | QVQLVESGGGLVQAGGSLRLSCAASGFILPHYTMGWYRQAPGKERELVAAITSGVSTYYADSVKGRFTISRDNAKNTVYLQMNSLKPEDTAVYYCNALATYIGYKYDYWGQGTQVTVSS | low polyreactivity
7 | QVQLVESGGGLVQAGGSLRLSCAASGLTFVANAMGWYSQAPGKERELVARISSSGGSTYYADSVKGRFTISRDNAKNTVYLQMNSLKPEDTAVYYCASSQSGGYDYWGQGTQVTVSS | high polyreactivity
8 | QVQLVESGVGLVQAGGSLSLICAASGRIFWPNAMGSYRQAPGKERELVAAISRGGNTNYADSVKGRFTISRDNAKNTVYLQMNSLKPEDTAVYYCAARNFALGYRFDYWGQGTQVTVSS | high polyreactivity
9 | QVQLLESGGGLVQAGGSLRLSCAASGFIFYHYAMGWYIQAPGKERELVAANSRSGTSTYYADSVKGRFTISRDNAKNTVYLQMNSLKPEDTAVYYCNAVYTRYVYYYYEYDYWGQGTQVTVSS | high polyreactivity
10 | QVQLVESGVGLVQAGGSLRLSCAACGSTFPINAMGWYRQAPGKESELVAAISWSAGSTHYADSVKGRFTISRDNAKNTVYLQMNSLKPEDTAVYYCAAETWGLGDYWGLGTQVTVSS | low polyreactivity
11 | QVQLVESGGGLVQAGGSLRLSCAASGSTFNWYAMGWYRQAPGKERELVASIRISGGSTYYADSVKGRFTISRDNAKNTVYLQMNSLKPEDTAVYYCNAKLFIRWFTYDYWGQGTQVTVSS | low polyreactivity
12 | QVQLVESGGGLVQAGGRLRLSCAASGITFRTYAMGWYREAPGKERELVDAITRRGGSTYYADSVKGRFTISRDNAKNTVYLQMNSLKPEDTAVYYCAVRHNGIQASVGYDYWGQGTQVTGSS | high polyreactivity
13 | QVQLVESGGGLVQAGGSLRLSCAASGSTFGYYAMGWYRQAPGKERELVAAITRGASTYYADSVNGRFTISRDNAKNTVYLQMNSLKPDDTAVYYCAFDTWKVQGASSRYRKMYYWGQGTQVTVSS | low polyreactivity
14 | QVQLVESGGGLVQAGGSLRLSCAASGITSSLNAMGWYRQAPGKERELVAAISWRGGSTYYADSVKGRFTISRDNAKNTVNLRMHSLKPEDTAVYYCNVVKRSFRYDYWGQGTQVTVSS | high polyreactivity
15 | QVQLVESWGGLVQAGGSLRLSCAASGFNPNAMGWYRQAPGKERELVAAISSNGGSTYYADSVKGRFTISRDNAKKTVYLQMNSLKPEDTAVYYCNRDQWRHTPAEGYYWGQGTQVTVSS | low polyreactivity
16 | QFQLVESGGGLVQAGGSLRLSCAASGRIFTYYAMGWYRQAPGKEWELVAAISTSGGSTYYADSVKGRFTISRDNANNTVYLQMNSLKPEDTAVYYCAKVYPPRYYRDYNYWGQGTQVTVSS | high polyreactivity
17 | QVQLVESGGGVVQAGGSLRLSCAASGSIFQSYAMGWYRQAPGKERELVAAISYSGDGPFYADSVKGRFTISRDNAKKTVYLQMNSLKPEDTAVYYCAASSTGYGGSTYYYWGQGTQVTVSS | low polyreactivity
18 | QVQLVESGGGLVQAGGSLRLICAASGSTLFYNAMGWYRQAPGKERELVAAISSGVRTNYADSVKGRFTISRDNAKITVYLQMNSLKPEDTALYYCAAATYNQDYSYDYWGQGTQVTVSS | low polyreactivity
19 | QVQHVESGGGLVQAGGSLRLSCAASGGIFYYYAMGWYRPAPGKERELVATISNGGSTYYADSVKGRFTISRDNAKNTVYLQMNSLNPEDTAVYYCAARDGRQPRGYRLVTYYAPMYYWGQGTQVTVSS | high polyreactivity
20 | QVQHVESGGGLVQAGGSLRLSCAASGLTLKRNAMGWYRQAPGKERELVAAISGRGGSTYYADSVKGRFTISRDNAKNTVYLQMNSLKPEDTAVYYCAATVQYSPIYDYWGQGTQVTVSS | high polyreactivity
21 | QDQLVVSGGGLFQAVGSLRLICAASGIFRSYAMGWYRQAPGKERELVAAITGGASGTYYADSVKGRFTISRDNAKNTVYLQMNSLKPEDTAVYFCAAVNRVYFPFRLQVIYGSWGQGTQVTVSS | high polyreactivity

Row | Sequence | polyreactivity (PSR sort gate)
22 | QVQLVESGGGLVQAGGSLRLSCAASGSIYPGNAMGWYRQAPGKERELVAVIDFSGASTYYADSVKGRFTISRDNAKNTVYLQMNSLKPEDTADYWGQGTQVTVSS | low polyreactivity
23 | QVQLVESGGGLVQAGGSLRLSCAASGSIFYFNAMGWYRQAPGKERELVAAISTSGGSTYADSVKGRFTISRDNAKNTVYLQMNSLKPEDTAVYYCAADYLTSRSRTFDYWGQGTQVTVSS | low polyreactivity
24 | QVQLVESGGGLVQAGGSLRLSCAASGSIFYLYAMGWYRQAPGKERELVARITWSGGRTFYADSVKGRFTISRDNAKNTVYLQMNSLKPEDTAVYYCNARYHGKYDYWGQGTQVTVSS | high polyreactivity
25 | QDQLVESGGGLVQAGGSLRLSCAASGGIFPVNALGWYRQAPVKERELVATITYDGGNTYYADSVKGRFTISRDNAKKTVYLQMNSLKREDTAVYYCAKDSLSFYGYISYIGYGYDYWGQGTQVTVSS | low polyreactivity
26 | QVQLVESGGGLVQAGGSLRLSCASSGRTFLHNAMGWYRQAPGKERELVAAISSRGGSTYYADSVKGRFTISRDNAKNTVYLQMNSLKPEDTAVYYCAADLVVYRYDYWGQGTQVTVSS | high polyreactivity
27 | QVQLVESGGGLVQAGGSLRLSCAASGRTFWYYAMGWYRQAPGNERELVATISYRGGSTYYADSVKGRFTISRDNAKNTVYLQMNSLKPEDPAVYYSAAKQWWGGRPKVDYWGQGTQVTVSS | high polyreactivity
28 | QVQLVESGGGLVQAGGSLRLSCAASGRTFYSYTMGWYRQAPGKEREFVAAISSSGSSTYYADSVKGRFTISRDNAKYTVYLQMNSLKPEDTAVYYCAATRYRYPGYFRYDYWGQGTQVTVSS | high polyreactivity
29 | QVQLVESGGGLVQAGGSLRLSCAASGRIFAYYAMGWYRQAPGKESELVAAINWSGDGTNYADSVKGRFTISRDNAKNTVYLQMNSLKPVDTAVYYCAARLGHSVNPGGERWDVEYWGQGTQVTVSS | low polyreactivity
30 | QVHLVESGGGLVQAGGTLRLRCAASGSIFCCNAMGWYRQAPGKERELVAAISTSGGTTYYADSVKGRFTISRDNAKNTVFLQMHSLKPEDTAVYYCAADVYSSRYLYDYWGHGTQVTVSS | low polyreactivity
31 | QVQLVESGGGLVQAGGSLRLSCAASGSTFLGYVMGWYRQAPGKEREFVAAITWSVGSTYYADSVKGRFTISRDNAKNTVYLQMNSLKPEDTAVYYCAVRWVYANIYPDMEYWGQGTKVTVSS | low polyreactivity
32 | QVQLVESGGGLVQAGGSLRLTCAASGLIFGSNAMRWYRKAPGKERELVAGISGSGEHYVLRRSVKGRFTISRDNAKNTVYVQMNSLKPEDTAVYYCATYSQSSKGPAGYDYWGQGTHVTVSS | high polyreactivity
33 | QVQLVESGGGLVQAGGSLRLSCAASGRTFYSYAMGWYRQAPGKERELVAAISYTGASTFYADSVKGRFTISRDNAKNTVYLQMNSLKPEDTAVYYCAARKVRFGVDYWGPGTQVTVSS | high polyreactivity
34 | QVQLVESGGGLVQAGGSLRLSCAASGSTSDINAMGWYRPAPGKERELVAVITFSGGTTNYADSVKGRFTISRDNAKNTVYLQMNSLKPEDTAVYYCNADTLTTTRRFNPYDYWGQGTQVTVSS | low polyreactivity
35 | QVQLVESGGGLVQAGGSLRLSCASGSTYVYAMGWYRQAPGKERELVATISSTGSTYYADSVKGRFTISRDNAKNTVYLQMNSLKQEDTAVYYCAADVWNNGWIYGSYDEYDYWGQGTQVTVSS | high polyreactivity
36 | QVQLVESGGGLVQAGGSLRLSCAASGRIFYYSAMGWSRQAPGIERELVAAITRRGGSTYYADSVKGRVTISRDNAKNTVFLQMNSLKPEDTEVYYSAKPDRTCWLDGDYWGQGSQVTVSS | low polyreactivity
37 | QVQLVESGGGLVQAGGSLRLSCAASGSIFRYNAMGWYRQAPGKERELVAAITRSGGRTYYADSVKGRFTISRDNAKNTVYLQMNSLKPEDTAVYYCAAKGYTYGLTYDYWGQGTQVTVSS | high polyreactivity
38 | QVQLVESGGGLVQAGVSLRLSCAASGSIFYAYAMGWYRQAPGKERELVAVINSGGSTYYADSVKGRFRISSEYAKNTVYLQMNSLKPEDTAVYYCNGTQYRGKYDYPPPGRGYYYWGQGTHVTVSS | high polyreactivity
39 | QVQLVESGGGLVQAGGSLRLSCAASGSIIYQYAMGWYRQAPGKERELVAAITWSGGSTYYADSVKGRFTISRDNAKNTVYLQMNSLKPEDTAVYYCAAYAYGGRINGYRTYRYNYWGQGTQVTVSS | high polyreactivity
40 | QVQLVESGGGLVQAGGSLRLSCAASGNIFYIYAMGWYRQAPGKERELVASISGRGGRTYYADSVKGRFTISRDNAKNTVYLQMNSLKPEDTAVYYCAADGYRTYSEMDYWGQGTQVTVSS | high polyreactivity
41 | QVQLVESGGGLVQAGGSLRLSCAASGNAMGWYRQAPGKERELVASINRSGGSTYYADSVKGRFTISRDNAKNTVYLQMNSLIPEDTAVYSCNTDVGATVEDDYWGQGTQVTVSS | low polyreactivity
